Data: patent US20250376519A1 (JIANGSU HENGRUI PHARMACEUTICALS, published 2025)

T1: human DLL3 on cells (human, UniProt Q9NYJ7 27-618)
T1 sequence: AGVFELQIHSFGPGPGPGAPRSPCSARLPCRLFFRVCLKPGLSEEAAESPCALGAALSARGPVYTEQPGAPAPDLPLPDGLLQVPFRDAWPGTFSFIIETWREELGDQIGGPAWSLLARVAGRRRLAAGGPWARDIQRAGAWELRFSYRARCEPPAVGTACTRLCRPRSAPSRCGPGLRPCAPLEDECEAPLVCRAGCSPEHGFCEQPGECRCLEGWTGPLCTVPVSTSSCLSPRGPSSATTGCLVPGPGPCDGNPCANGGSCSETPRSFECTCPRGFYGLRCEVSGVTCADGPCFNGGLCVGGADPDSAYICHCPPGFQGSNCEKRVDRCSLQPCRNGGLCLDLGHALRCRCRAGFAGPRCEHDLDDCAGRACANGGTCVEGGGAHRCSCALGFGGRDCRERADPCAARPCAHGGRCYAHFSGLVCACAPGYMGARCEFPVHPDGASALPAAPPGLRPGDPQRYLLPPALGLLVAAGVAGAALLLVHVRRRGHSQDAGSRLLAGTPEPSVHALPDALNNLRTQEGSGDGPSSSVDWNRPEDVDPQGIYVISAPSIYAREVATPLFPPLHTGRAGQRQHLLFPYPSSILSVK

B1: hu110-I2C-Y body (bispecific antibody)
light: NIVMTQSPKSLAVSLGERATINCKASENVGIFVSWYQQKPGQSPKLLIYGASNRYTGVPDRFSGSGSATDFTLTISSLQAEDVADYYCGQSHSYPLTFGQGTKLEIKRTVAAPSVFIFPPSDEQLKSGTASVVCLLNNFYPREAKVQWKVDNALQSGNSQESVTEQDSKDSTYSLSSTLTLSKADYEKHKVYACEVTHQGLSSPVTKSFNRGEC
heavy: EVQLVQSGAEVKKPGASVKVSCKTSGYTFTDYYMNWVRQAPGQSLEWMGIINPYQGGTSYTQKFKGRVTITVDKSASTAYMELSSLRSEDTAVYYCARHFYDSSYLTYSTMDYWGQGTTVTVSSASTKGPSVFPLAPSSKSTSGGTAALGCLVKDYFPEPVTVSWNSGALTSGVHTFPAVLQSSGLYSLSSVVTVPSSSLGTQTYICNVNHKPSNTKVDKKVEPKSCDKTHTCPPCPAPEAAGGPSVFLFPPKPKDTLMISRTPEVTCVVVDVSHEDPEVKFNWYVDGVEVHNAKTKPREEQYNSTYRVVSVLTVLHQDWLNGKEYKCKVSNKALPAPIEKTISKAKGQPREPQVCTLPPSREEMTKNQVSLSCAVKGFYPSDIAVEWESNGQPENNYKTTPPVLDSDGSFFLVSKLTVDKSRWQQGNVFSCSVMHEALHNHYTQKSLSLSPGK
chain: not shown
notes: Format 2 (Y body: DLL3 Fab-Fc hole + CD3 scFv-Fc knob)
B2: hu110-S107E-hot Ig (bispecific antibody)
light 1: NIVMTQSPKSLAVSLGERATINCKASENVGIFVSWYQQKPGQSPKLLIYGASNRYTGVPDRFSGSGSATDFTLTISSLQAEDVADYYCGQSHSYPLTFGQGTKLEIKGGGGSSGAPRFLTRPKASVVSVGKDATLSCQIVGNPFPQVSWEKDKQPVTAGVRFRLAQDGDLYRLKILDLQLSDSGQYVCRARNAHGEAFACLGLQVDAEA
heavy 1: EVQLVQSGAEVKKPGASVKVSCKTSGYTFTDYYMNWVRQAPGQSLEWMGIINPYQGGTSYTQKFKGRVTITVDKSASTAYMELSSLRSEDTAVYYCARHFYDSSYLTYSTMDYWGQGTTVTVSSGGGGSGIPPKIECLPIDISIDEGKVLTVASAFTGEPTPEVTWSTGGRKIHSQEQGRFHIENTDDSTTLTIKDVQKQDGGLYTLTLRNEFGSDSATVNIHIRSIDKTHTCPPCPAPEAAGGPSVFLFPPKPKDTLMISRTPEVTCVVVDVSHEDPEVKFNWYVDGVEVHNAKTKPREEQYNSTYRVVSVLTVLHQDWLNGKEYKCKVSNKALPAPIEKTISKAKGQPREPQVCTLPPSREEMTKNQVSLSCAVKGFYPSDIAVEWESNGQPENNYKTTPPVLDSDGSFFLVSKLTVDKSRWQQGNVFSCSVMHEALHNHYTQKSLSLSPGK
heavy 2: not shown
light 2: not shown
notes: Format 1 (Hot-Ig, Titin/Obscurin-replaced DLL3 Fab), DLL3 x CD3
B3: hu110-I2C-hot Ig (bispecific antibody)
light 1: B2 light 1
heavy 1: B2 heavy 1
heavy 2: not shown
light 2: not shown
notes: as for B2

How the values were obtained:
[1] = biological target: T1, human DLL3 on cells; test: cell-based or functional assay
[2] = biological target: T1, human DLL3 on cells; test: cell-based or functional assay; remark: listed apart in the source
[3] = biological target: T1, human DLL3 on cells; test: flow cytometry, hDLL3/CHO-s cells
Method: The plates were centrifuged at 300 g for 5 min, and the supernatant was removed. Different concentrations of test antibodies were added at 100 μL/well. The plates were incubated in the dark in a refrigerator at 4° C. for 1 h. After 3 centrifugal washes at 300 g, working concentrations of APC anti-human IgG Fc (BioLegend, 410712) or PE F(ab′)2-goat anti-human IgG (invitrogen, H10104) were added. The plates were incubated in the dark in a refrigerator at 4° C. for 40 min. After 3 centrifugal washes at 300 g, the geometric mean fluorescence intensity was measured on an Invitrogen flow cytometer, and the EC50 values for the binding of the antibodies to DLL3-expressing cells were calculated.

[4] = biological target: T1, human DLL3 on cells; test: cell-based or functional assay; remark: listed apart in the source
[5] = biological target: T2, human CD3D&3E (ACRO, CDD-H52W1) (human, UniProt P04234 22-105; P07766 23-126); test: SPR Biacore 8K, Ab captured on Protein A
T2 construct: bought CD3 delta/epsilon protein
T2 sequence (P04234 22-105, chain 1 of 2): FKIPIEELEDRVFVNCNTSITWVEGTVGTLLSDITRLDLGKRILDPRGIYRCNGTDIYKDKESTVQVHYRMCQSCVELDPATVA
T2 sequence (P07766 23-126, chain 2 of 2): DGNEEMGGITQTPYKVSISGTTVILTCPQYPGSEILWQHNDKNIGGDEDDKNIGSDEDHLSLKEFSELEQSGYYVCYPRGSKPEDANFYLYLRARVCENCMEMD
Summary of the method: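 Antibodies captured on a Protein A chip for 18 s; DLL3 or CD3D&3E antigen flowed 180 s, then 600 s dissociation, with real-time detection. Regeneration used 10 mM glycine-HCl pH 1.5 between cycles. Kinetics were obtained by 1:1 model fitting.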

Row | Binder | EC50, Jurkat Lucia NFAT reporter with H82/DLL3 cells [1] | IC50, PBMC killing of SHP77/lucG cells [2] | Imax (%), PBMC killing of SHP77/lucG cells [2] | EC50 [3] | IC50, PBMC killing of H1184/lucG cells [4] | Imax (%), PBMC killing of H1184/lucG cells [4] | Kd [5] | koff [5] | kon [5] | Fold changes in activation, Jurkat Lucia NFAT reporter with H82/DLL3 cells [1]
1 | B1 | 0.00636 nM | 0.0338 nM | 100% | 4.52 nM | 0.00642 nM | 98% |  |  |  | 
2 | B2 | 0.0177 nM |  |  | 5.07 nM | 0.0295 nM | 92% | 46.7 nM | 0.00749 s⁻¹ | 160000 M⁻¹ s⁻¹ | 18 fold
3 | B3 |  | 0.0222 nM | 96% | 4.91 nM |  |  |  |  |  | 
